Columns and labels:
Experiment in all cases: bead flow cytometry, AUC minus CD4
[1] = biological target: T1, HCoV-NL63 spike protein (Sino Biological 40604-V08B) (HCoV-NL63, UniProt Q6Q1S2 19-1296)
T1 sequence: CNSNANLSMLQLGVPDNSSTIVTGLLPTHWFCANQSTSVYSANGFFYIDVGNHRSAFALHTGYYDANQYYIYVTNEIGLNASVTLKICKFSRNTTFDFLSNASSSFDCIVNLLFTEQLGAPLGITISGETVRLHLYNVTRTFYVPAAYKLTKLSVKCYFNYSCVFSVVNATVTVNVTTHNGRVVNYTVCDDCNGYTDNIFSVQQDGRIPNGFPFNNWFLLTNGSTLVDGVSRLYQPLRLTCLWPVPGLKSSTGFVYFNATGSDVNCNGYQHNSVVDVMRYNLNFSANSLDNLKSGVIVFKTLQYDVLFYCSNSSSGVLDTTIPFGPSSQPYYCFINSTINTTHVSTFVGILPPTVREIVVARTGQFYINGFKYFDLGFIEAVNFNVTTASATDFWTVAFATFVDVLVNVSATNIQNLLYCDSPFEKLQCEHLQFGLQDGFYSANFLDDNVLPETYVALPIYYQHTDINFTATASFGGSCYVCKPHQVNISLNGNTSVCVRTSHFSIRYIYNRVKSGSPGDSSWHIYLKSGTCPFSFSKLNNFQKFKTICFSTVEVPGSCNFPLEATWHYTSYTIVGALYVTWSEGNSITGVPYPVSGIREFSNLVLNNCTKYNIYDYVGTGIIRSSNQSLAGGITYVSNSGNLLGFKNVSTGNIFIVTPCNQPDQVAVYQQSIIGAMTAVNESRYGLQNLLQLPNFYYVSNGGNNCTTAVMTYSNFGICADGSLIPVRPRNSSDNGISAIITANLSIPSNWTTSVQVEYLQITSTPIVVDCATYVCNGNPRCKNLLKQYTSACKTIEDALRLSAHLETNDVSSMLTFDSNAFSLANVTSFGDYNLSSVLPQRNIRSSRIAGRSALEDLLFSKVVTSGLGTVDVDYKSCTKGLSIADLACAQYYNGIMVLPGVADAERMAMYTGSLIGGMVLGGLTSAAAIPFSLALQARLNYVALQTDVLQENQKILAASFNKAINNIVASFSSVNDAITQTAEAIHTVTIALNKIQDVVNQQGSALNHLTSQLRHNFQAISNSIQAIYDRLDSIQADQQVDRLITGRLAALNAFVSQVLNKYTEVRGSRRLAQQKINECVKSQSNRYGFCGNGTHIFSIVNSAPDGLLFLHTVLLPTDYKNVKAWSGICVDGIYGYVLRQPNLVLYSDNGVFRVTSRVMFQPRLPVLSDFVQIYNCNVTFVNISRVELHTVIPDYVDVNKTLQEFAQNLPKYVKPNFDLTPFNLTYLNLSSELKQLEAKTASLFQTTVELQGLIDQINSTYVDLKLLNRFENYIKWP

[2] = biological target: T2, HCoV-229E spike protein (Sino Biological 40605-V08B) (HCoV-229E, UniProt P15423 16-1115)
T2 sequence: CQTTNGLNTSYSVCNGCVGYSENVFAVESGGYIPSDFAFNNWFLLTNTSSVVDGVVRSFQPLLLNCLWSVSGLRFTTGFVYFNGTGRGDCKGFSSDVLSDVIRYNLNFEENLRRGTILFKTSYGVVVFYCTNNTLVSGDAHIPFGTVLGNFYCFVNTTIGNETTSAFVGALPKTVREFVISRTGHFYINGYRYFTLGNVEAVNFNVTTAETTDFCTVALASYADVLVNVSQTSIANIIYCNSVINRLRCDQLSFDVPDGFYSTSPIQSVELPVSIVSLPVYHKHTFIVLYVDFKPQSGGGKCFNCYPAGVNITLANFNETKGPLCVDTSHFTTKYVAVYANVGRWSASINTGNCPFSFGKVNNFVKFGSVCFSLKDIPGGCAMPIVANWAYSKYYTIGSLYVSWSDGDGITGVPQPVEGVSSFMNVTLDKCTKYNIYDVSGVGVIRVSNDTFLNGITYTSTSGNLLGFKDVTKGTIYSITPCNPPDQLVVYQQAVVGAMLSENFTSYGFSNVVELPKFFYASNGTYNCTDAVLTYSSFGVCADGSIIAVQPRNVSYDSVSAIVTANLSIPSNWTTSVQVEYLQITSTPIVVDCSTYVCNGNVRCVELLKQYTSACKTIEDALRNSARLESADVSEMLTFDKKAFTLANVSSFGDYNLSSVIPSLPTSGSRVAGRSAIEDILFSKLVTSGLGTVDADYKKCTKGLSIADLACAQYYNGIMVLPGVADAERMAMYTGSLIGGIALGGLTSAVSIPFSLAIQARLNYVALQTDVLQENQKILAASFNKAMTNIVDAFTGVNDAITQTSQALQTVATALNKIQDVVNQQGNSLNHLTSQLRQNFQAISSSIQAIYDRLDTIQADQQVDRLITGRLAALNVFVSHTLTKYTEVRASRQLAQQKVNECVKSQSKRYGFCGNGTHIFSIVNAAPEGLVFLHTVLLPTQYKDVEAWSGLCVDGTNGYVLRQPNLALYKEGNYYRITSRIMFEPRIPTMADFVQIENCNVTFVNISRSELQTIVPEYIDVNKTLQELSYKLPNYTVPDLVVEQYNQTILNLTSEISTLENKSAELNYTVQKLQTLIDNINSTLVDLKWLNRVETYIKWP

[3] = biological target: SARS-CoV-2 spike receptor binding domain (RBD), recombinant (SARS-CoV-2, UniProt P0DTC2 319-541)
[4] = biological target: SARS-CoV-2 spike N-terminal domain (NTD), recombinant (SARS-CoV-2, UniProt P0DTC2 14-305)

Measured: binding result

B1: COV57-34 (antibody, V domains shown)
VH: QVQLVQSGTEVKKPGSSVKVSCRASGGTLSSYSVSWVRQAPGQGLEWMGRIIPILDKKTYAQKYQGRVTIIADTSTSTVYMELSSLKSDDSAVYYCTTFDYDTSGQRDQHDYWGQGTPVTVSS
VL: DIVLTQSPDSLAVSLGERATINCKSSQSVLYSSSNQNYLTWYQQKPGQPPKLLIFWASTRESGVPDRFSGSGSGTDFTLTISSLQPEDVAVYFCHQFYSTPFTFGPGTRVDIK
no binding (tested: 200 µg/mL): all assays above

B2: COV57-13 (antibody, V domains shown)
VH: QVQLVQSGTEVKKPGSSVKVSCRASGGTLSSYSVSWVRQAPGQGLEWMGRIIPILDKKTYAQKYQGRVTIIADTSTSTVYMELSSLKSEDSAVYYCTTFDYDTSGQRDQHDYWGQGTLVTVSS
VL: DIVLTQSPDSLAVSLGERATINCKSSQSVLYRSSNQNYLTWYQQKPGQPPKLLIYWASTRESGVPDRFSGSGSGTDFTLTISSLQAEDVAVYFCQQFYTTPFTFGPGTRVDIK
no binding (tested: 200 µg/mL): all assays above

B3: COV77-09 (antibody, V domains shown)
VH: EVQLVESGGGLVQPGRSLTLSCSGSGFTFGDYSMSWVRQAPGKGLEWLGFIRSQTYGGTTQYAASVQGRFTILRDDSKSIAYLQMNSLKTEDTAVYYCTRNYGVGDYWGQGTLVTVSS
VL: DIVMTQSPASLAVSLGERATIHCRSSLSVLNSSNNKNYLAWYQQKAGQPPKLLMYWASTRESGVPERFSGSGSGTDFTLTISSLEAGDVAVYYCQQYYDKLSLTFGGGTKVEIK
no binding (tested: 200 µg/mL): all assays above

B4: COV49-54 (antibody, V domains shown)
VH: EVQLVESGGGLVQPGGSLRLSCAASGFIVSSNYMSWVRQAPGKGLEWVSMIYSGGSTVYADSVKGRFTISRDISKNTLYLQMNSLRAEDTAVYYCALETFDYWGQGTLVTVSS
VL: DIQMTQSPSSLSASVGDRVTITCRASQGITNHLAWYQQKPGKVPKLLIYAASTLQSGVPSRFSGSGYGTDFTLTISSLQPEDVASYYCQKYDSAPRTFGQGTKVEIK
no binding (tested: 200 µg/mL): all assays above

B5: COV44-74 (antibody, V domains shown)
VH: QVQLVQSGAEVKKPGASVKVSCKASGYTFSSYYMNWVRQAPGQGLEWVGLISPSAGYTAYAQMFQGRVTMTRDTSTSTVYMELSSLRSEDTAVYYCARVAVAGPNDYWGQGTLVTVSS
VL: EIVLTQSPGTLSLSPGERATLSCRASQSISSSYLAWYQQKPGQAPRLVILAASTRATGIPDRFSGSGSGTDFTLTISRLEPEDFALYYCQHYRSSPPLWTFGQGTKVEIR
no binding (tested: 200 µg/mL): all assays above

B6: COV23-01 (antibody, V domains shown)
VH: QVTLKESGPVLVKPTETLTLTCTVSGFSLSNTKMGVSWIRQPPGKALEWLAHIFSNDRKSYTTSLKSRLTISEDTSKSQIVLTMTNMDPVDTATYYCARIGAGGTYNFYYYMDVWGKGTTVTVSS
VL: EIVLTQSPATLSLSPGERATLSCRASQSVSSYLAWYQQKPGQAPRLLIYDASNRATGIPARFSGSGSGTDFTLTISSLEPEDFAVYYCQQRSLYYTFGQGTKLEIK
no binding (tested: 200 µg/mL): all assays above

B7: COV44-37 (antibody, V domains shown)
VH: QVQLVQSGAEVKKPGASVMLSCRASGYTFINDYMHWVRQAPGEGFEWMGIINPTGDGTKFAQKFQGRVTMTRDSSTTTVHMELRSLTSGDTAVYFCATGGRQSAFDIWGQGTVVIVSS
VL: DIVMTQSPLSLPVTPGESASISCRSSQSLLQNNGYNYLDWYLQKPGQSPQLLIYLGSYRASGVPDRFSGSGSGTDFTLKISRVEAEDVGVYYCVQAQQAPPLYTFGQGTKLQIK
no binding (tested: 200 µg/mL): all assays above

B8: COV57-38 (antibody, V domains shown)
VH: QVQLVESGGGVVQPGRSLRLSCEASGFNFNNYGMHWVRQAPGKGLEWVAVISYEGSKKYYEDSVRGRFTISRDFSKNTLYLQMNSLRAEDTAVYYCAKANEIFWLGQFKNDALDFWGQGTMVTVSS
VL: QSVLTQPPSASGTPGQRVAVSCSGSSSNIGTNFVNWYQHLPRTAPKLLIYRDNQRPSGVPDRFSGSKSGTSASLAISGLQSEDEADYYCAVWDDSLNGQVFGGGTKVTVL
no binding (tested: 200 µg/mL): all assays above

From patent US20250145690A1 (US Dept. of Health and Human Services, published 2025)
